{"source": "paper PMC3273827", "molecular_target": "T1, La(4-325) (Homo sapiens, UniProt P05455 4-325)", "T1 sequence": "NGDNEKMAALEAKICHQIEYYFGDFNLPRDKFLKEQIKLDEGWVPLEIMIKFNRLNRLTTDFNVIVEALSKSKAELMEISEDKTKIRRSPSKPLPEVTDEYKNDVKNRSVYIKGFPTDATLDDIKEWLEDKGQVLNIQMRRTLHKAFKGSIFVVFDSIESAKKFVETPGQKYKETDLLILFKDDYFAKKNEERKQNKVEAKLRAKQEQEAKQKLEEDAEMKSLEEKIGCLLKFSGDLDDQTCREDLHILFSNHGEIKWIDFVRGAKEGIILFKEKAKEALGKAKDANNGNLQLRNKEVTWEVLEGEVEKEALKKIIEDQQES", "experiment": "ITC"}
{"binder": "ACCUAACCACCACUACCACCUCCCACA (ssRNA)", "note": "[27-mer ssRNA]", "values": [{"measurement": "binding result", "value": "no binding"}]}
